Source: the supplement of paper PMC9112550, “Optimization of the antimicrobial peptide Bac7 by deep mutational scanning” (BMC Biology, 2022)

Each sequence was assayed on Escherichia coli TOP10 (assay: shrunken log2 fold change of peptide-encoding DNA abundance (4.5 h post-induction vs induction); higher = less antimicrobial activity (less host growth inhibition)). Conditions: time post-induction: 4.5 h; library: site-saturation at positions 5, 18, 19, 20.
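Further: peptides expressed intracellularly from a pBAD plasmid library in pooled LB shake-flask culture, induced with 0.3% L-arabinose, DNA abundance read by NGS, three biological replicates, DESeq2 with apeglm shrinkage.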

| Sequence | shrunken log2 fold change |
| --- | --- |
| RRIRMRPPRLPRPRPRPFASPRP | 0.0812 |
| RRIRARPPRLPRPRPRPWNTPRP | -0.427 |
| RRIRYRPPRLPRPRPRPSMVPRP | -0.858 |
| RRIRIRPPRLPRPRPRPIYHPRP | -0.622 |
| RRIRDRPPRLPRPRPRPQKEPRP | -0.0595 |
| RRIRSRPPRLPRPRPRPPDEPRP | 0.813 |
| RRIRFRPPRLPRPRPRPVTSPRP | -0.0369 |
| RRIRQRPPRLPRPRPRPQKEPRP | -0.00507 |
| RRIRPRPPRLPRPRPRPGTGPRP | -0.0651 |
| RRIRARPPRLPRPRPRPVKNPRP | 0.384 |
| RRIRHRPPRLPRPRPRPKEKPRP | 0.0444 |
| RRIRPRPPRLPRPRPRPSMHPRP | 0.828 |
| RRIRCRPPRLPRPRPRPMTTPRP | 0.151 |
| RRIRSRPPRLPRPRPRPKHMPRP | 0.00683 |
| RRIRWRPPRLPRPRPRPFPDPRP | 0.116 |
| RRIRNRPPRLPRPRPRPTNRPRP | -0.00917 |
| RRIRKRPPRLPRPRPRPCADPRP | 0.006 |
| RRIRSRPPRLPRPRPRPSYRPRP | -0.131 |
| RRIRQRPPRLPRPRPRPHFVPRP | -0.208 |
| RRIRSRPPRLPRPRPRPDDAPRP | 0.162 |
| RRIRMRPPRLPRPRPRPSSLPRP | -0.156 |
| RRIRPRPPRLPRPRPRPDLVPRP | -0.0293 |
| RRIRHRPPRLPRPRPRPFLMPRP | -0.456 |
| RRIRARPPRLPRPRPRPHIPPRP | -0.671 |
| RRIRRRPPRLPRPRPRPDIVPRP | 0.17 |

| Sequence | shrunken log2 fold change |
| --- | --- |
| RRIRYRPPRLPRPRPRPLMYPRP | -0.48 |
| RRIRTRPPRLPRPRPRPHCTPRP | -0.298 |
| RRIRCRPPRLPRPRPRPDRGPRP | 0.0229 |
| RRIRSRPPRLPRPRPRPLLLPRP | -0.0475 |
| RRIRDRPPRLPRPRPRPRACPRP | 0.389 |
| RRIRTRPPRLPRPRPRPYIRPRP | -1.31 |
| RRIRDRPPRLPRPRPRPNPFPRP | -0.343 |
| RRIRGRPPRLPRPRPRPVVCPRP | 0.812 |
| RRIRVRPPRLPRPRPRPKPCPRP | 0.205 |
| RRIRTRPPRLPRPRPRPYLSPRP | 0.0138 |
| RRIRHRPPRLPRPRPRPVTHPRP | -0.12 |
| RRIRRRPPRLPRPRPRPCSWPRP | -0.124 |
| RRIRNRPPRLPRPRPRPKPQPRP | 0.41 |
| RRIRKRPPRLPRPRPRPVAFPRP | 0.238 |
| RRIRCRPPRLPRPRPRPLSGPRP | -0.0515 |
| RRIRYRPPRLPRPRPRPPMPPRP | 0.0328 |
| RRIRQRPPRLPRPRPRPTWRPRP | 0.345 |
| RRIRCRPPRLPRPRPRPVTDPRP | 0.133 |
| RRIRQRPPRLPRPRPRPFYMPRP | -1.52 |
| RRIRPRPPRLPRPRPRPMFSPRP | -0.295 |
| RRIRRRPPRLPRPRPRPDHHPRP | -0.254 |
| RRIRRRPPRLPRPRPRPKWKPRP | -0.0205 |
| RRIRARPPRLPRPRPRPKMWPRP | 0.553 |
| RRIRNRPPRLPRPRPRPTFAPRP | 0.343 |
| RRIRWRPPRLPRPRPRPPDMPRP | 0.0014 |

| Sequence | shrunken log2 fold change |
| --- | --- |
| RRIRKRPPRLPRPRPRPMQYPRP | -0.0135 |
| RRIRCRPPRLPRPRPRPFKIPRP | -0.6 |
| RRIRQRPPRLPRPRPRPQSDPRP | -0.00542 |
| RRIRGRPPRLPRPRPRPNRMPRP | -0.00965 |
| RRIRDRPPRLPRPRPRPVWCPRP | 0.162 |
| RRIRHRPPRLPRPRPRPHGMPRP | -0.000911 |
| RRIRMRPPRLPRPRPRPTWMPRP | 0.25 |
| RRIRPRPPRLPRPRPRPHTYPRP | -0.942 |
| RRIRARPPRLPRPRPRPVCCPRP | 0.573 |
| RRIRFRPPRLPRPRPRPTRSPRP | 0.189 |
| RRIRHRPPRLPRPRPRPYYKPRP | -0.913 |
| RRIRYRPPRLPRPRPRPESSPRP | -0.0327 |
| RRIRKRPPRLPRPRPRPYPFPRP | 0.00884 |
| RRIRDRPPRLPRPRPRPLMEPRP | 0.117 |
| RRIRHRPPRLPRPRPRPMCKPRP | -0.151 |
| RRIRYRPPRLPRPRPRPKCMPRP | -0.841 |
| RRIRERPPRLPRPRPRPNSIPRP | -0.317 |
| RRIRWRPPRLPRPRPRPPHTPRP | 0.494 |
| RRIRIRPPRLPRPRPRPSVAPRP | 0.011 |
| RRIRGRPPRLPRPRPRPQSQPRP | 0.139 |
| RRIRHRPPRLPRPRPRPLHHPRP | -0.554 |
| RRIRSRPPRLPRPRPRPGYGPRP | -0.0163 |
| RRIRIRPPRLPRPRPRPTSPPRP | 0.118 |
| RRIRWRPPRLPRPRPRPWESPRP | -0.0449 |
| RRIRPRPPRLPRPRPRPKSDPRP | 0.0265 |

| Sequence | shrunken log2 fold change |
| --- | --- |
| RRIRERPPRLPRPRPRPTPEPRP | 0.122 |
| RRIRTRPPRLPRPRPRPQCGPRP | -0.0173 |
| RRIRKRPPRLPRPRPRPFQEPRP | 0.149 |
| RRIRWRPPRLPRPRPRPCRRPRP | 0.0574 |
| RRIRIRPPRLPRPRPRPQAPPRP | -0.331 |
| RRIRTRPPRLPRPRPRPRLCPRP | 0.317 |
| RRIRFRPPRLPRPRPRPCQHPRP | -0.397 |
| RRIRWRPPRLPRPRPRPEHTPRP | 0.489 |
| RRIRDRPPRLPRPRPRPGREPRP | 0.603 |
| RRIRCRPPRLPRPRPRPYSHPRP | -0.595 |
| RRIRQRPPRLPRPRPRPLDCPRP | -0.221 |
| RRIRKRPPRLPRPRPRPTCLPRP | 0.0518 |
| RRIRMRPPRLPRPRPRPKREPRP | 0.055 |
| RRIRRRPPRLPRPRPRPMEFPRP | 0.0274 |
| RRIRRRPPRLPRPRPRPECLPRP | 0.635 |
| RRIRTRPPRLPRPRPRPDEIPRP | -0.235 |
| RRIRHRPPRLPRPRPRPMPWPRP | -0.032 |
| RRIRPRPPRLPRPRPRPIVEPRP | 0.233 |
| RRIRFRPPRLPRPRPRPNQIPRP | -0.23 |
| RRIRDRPPRLPRPRPRPEVLPRP | 1.14 |
| RRIRFRPPRLPRPRPRPEYCPRP | 0.0467 |
| RRIRARPPRLPRPRPRPIYSPRP | -0.227 |
| RRIRVRPPRLPRPRPRPLMHPRP | -0.249 |
| RRIRNRPPRLPRPRPRPAGWPRP | 0.558 |
| RRIRIRPPRLPRPRPRPDNQPRP | -1.03 |

| Sequence | shrunken log2 fold change |
| --- | --- |
| RRIRVRPPRLPRPRPRPDGFPRP | -0.0085 |
| RRIRLRPPRLPRPRPRPSCAPRP | -0.00959 |
| RRIRIRPPRLPRPRPRPMDKPRP | -0.448 |
| RRIRVRPPRLPRPRPRPRNWPRP | 0.4 |
| RRIRIRPPRLPRPRPRPRDTPRP | -0.534 |
| RRIRDRPPRLPRPRPRPRTMPRP | -0.0423 |
| RRIRYRPPRLPRPRPRPIQIPRP | -0.409 |
| RRIRRRPPRLPRPRPRPVIVPRP | -0.114 |
| RRIRARPPRLPRPRPRPQWFPRP | 0.0925 |
| RRIRKRPPRLPRPRPRPNLNPRP | -0.356 |
| RRIRRRPPRLPRPRPRPMPLPRP | 2.47 |
| RRIRARPPRLPRPRPRPDSFPRP | -0.0867 |
| RRIRFRPPRLPRPRPRPCASPRP | -0.315 |
| RRIRYRPPRLPRPRPRPLNVPRP | 0.0468 |
| RRIRCRPPRLPRPRPRPMQYPRP | -0.000361 |
| RRIRPRPPRLPRPRPRPKSQPRP | -0.193 |
| RRIRDRPPRLPRPRPRPRVHPRP | -0.0969 |
| RRIRQRPPRLPRPRPRPHMMPRP | -0.526 |
| RRIRNRPPRLPRPRPRPSASPRP | -0.2 |
| RRIRNRPPRLPRPRPRPIWRPRP | 0.00377 |
| RRIRNRPPRLPRPRPRPHTIPRP | -0.106 |
| RRIRLRPPRLPRPRPRPWACPRP | -0.0699 |
| RRIRQRPPRLPRPRPRPVFSPRP | -0.192 |
| RRIRRRPPRLPRPRPRPRWVPRP | 0.407 |
| RRIRYRPPRLPRPRPRPGIRPRP | 0.0108 |

| Sequence | shrunken log2 fold change |
| --- | --- |
| RRIRFRPPRLPRPRPRPHHGPRP | 0.000407 |
| RRIRTRPPRLPRPRPRPKSFPRP | 0.0134 |
| RRIRRRPPRLPRPRPRPDQWPRP | 0.224 |
| RRIRDRPPRLPRPRPRPNMGPRP | 0.102 |
| RRIRQRPPRLPRPRPRPDCQPRP | -0.0643 |
| RRIRGRPPRLPRPRPRPGIDPRP | 0.607 |
| RRIRKRPPRLPRPRPRPQDHPRP | 0.103 |
| RRIRRRPPRLPRPRPRPFHGPRP | -0.17 |
| RRIRCRPPRLPRPRPRPRCVPRP | -0.0609 |
| RRIRYRPPRLPRPRPRPMTCPRP | -0.122 |
| RRIRTRPPRLPRPRPRPYYSPRP | -0.274 |
| RRIRNRPPRLPRPRPRPEQAPRP | 0.632 |
| RRIRIRPPRLPRPRPRPKRNPRP | -0.0625 |
| RRIRSRPPRLPRPRPRPVGSPRP | 0.304 |
| RRIRVRPPRLPRPRPRPDLKPRP | 0.00797 |
| RRIRRRPPRLPRPRPRPQILPRP | 0.0332 |
| RRIRARPPRLPRPRPRPANPPRP | 0.425 |
| RRIRERPPRLPRPRPRPRITPRP | -0.578 |
| RRIRDRPPRLPRPRPRPQNSPRP | -0.24 |
| RRIRSRPPRLPRPRPRPDKWPRP | 0.858 |
| RRIRDRPPRLPRPRPRPWSEPRP | -0.228 |
| RRIRFRPPRLPRPRPRPKLEPRP | -0.0492 |
| RRIRKRPPRLPRPRPRPAKRPRP | 2.15 |
| RRIRTRPPRLPRPRPRPDPLPRP | -0.145 |
| RRIRVRPPRLPRPRPRPAQQPRP | 0.375 |
